Legend:
[1] = target: recombinant human latent myostatin (human, UniProt O14793 24-375, biotinylated (in the Octet pH assay only)); assay: cell-based or functional assay
[2] = target: T1, human pro-myostatin (human, UniProt O14793 24-375, biotinylated (in the SPR assay)); assay: cell-based or functional assay
[3] = target: T2, murine pro-myostatin (mouse, UniProt O08689 25-376, biotinylated (in the SPR assay)); assay: plate binding assay, absorbance at 450 nm, antibody titrated 100 to about 0.002 nM, panel 'Murine Pure Pro-GDF-8' (method not described in the text)
T2 construct: also called proGDF8 (mouse); mouse pro-myostatin

[4] = target: T1, human pro-myostatin; assay: plate binding assay, absorbance at 450 nm, antibody titrated 100 to about 0.002 nM, panel 'Human Pure Pro-GDF-8' (method not described in the text)
[5] = target: T3, cyno pro-myostatin (cynomolgus monkey, Biotinylated for capture in the SPR assay (site not stated). The native form is a disulfide-linked homodimer, partly furin-cleaved; one chain is given.); assay: plate binding assay, absorbance at 450 nm, antibody titrated 100 to about 0.002 nM, panel 'Cyno Pure Pro-GDF-8' (method not described in the text)
T3 construct: also called proGDF8 (cynomolgus); cynomolgus monkey pro-myostatin

[6] = target: T3, cyno pro-myostatin; assay: SPR Biacore 8K, biotin-antigen captured
[7] = target: T2, murine pro-myostatin; assay: SPR Biacore 8K, biotin-antigen captured
[8] = target: T1, human pro-myostatin; assay: SPR Biacore 8K, biotin-antigen captured
[9] = target: T1, human pro-myostatin; assay: plate binding assay, OD 450 nm, antibody titrated 0.0003 to 100 nM, panel 'Hu-Pro-GDF-8 Plate 2' (method not described in the text)
[10] = target: T3, cyno pro-myostatin; assay: plate binding assay, OD 450 nm, antibody titrated 0.0003 to 100 nM, panel 'Cyno-Pro-GDF-8 Plate 2' (method not described in the text)
[11] = target: T2, murine pro-myostatin; assay: plate binding assay, OD 450 nm, antibody titrated 0.0003 to 100 nM, panel 'Mu-Pro-GDF-8 Plate 2' (method not described in the text)

B1: Ab104 (antibody, human IgG4 S228P, kappa, V domains shown)
VH: EVQLVESGGGLVQPGGSLRLSCAASGSAFSSYGMSWVRQAPGKGLELVASINSNGGSTYYPDSVKGRFTISRDNAKNSLYLQMNSLRAEDTAVYYCARDLLVKFLSWSHYYGMDVWGQGTTVTVSS
VL: DIVMTQSPLSLPVTPGEPASISCRSSQSLLHSSGHNFLHWYLQKPGQSPQLLIYEVSNRVSGVPDRFSGSGSGTDFTLKISRVEAEDVGVYYCMQQTQYPPTFGGGTKVEIKR
IC50 (nM) Latent + mTLL2 [1]: 0.22 nM
IC50 (nM) Pro + Furin [2]: 0.363 nM
EC50 (read off the curve) [3]: ~0.6 nM
EC50 (read off the curve) [4]: ~0.5 nM
EC50 (read off the curve) [5]: ~0.7 nM
Kd [6]: 0.076 nM
koff [6]: 0.000322 s⁻¹
kon [6]: 4.21e+06 M⁻¹ s⁻¹
Kd [7]: 0.145 nM
koff [7]: 0.000518 s⁻¹
kon [7]: 3.58e+06 M⁻¹ s⁻¹
Kd [8]: 0.1 nM
koff [8]: 0.000381 s⁻¹
kon [8]: 3.82e+06 M⁻¹ s⁻¹

B2: Ab121 (antibody, human IgG4 S228P, kappa, V domains shown)
VH: QVTLRESGPALVKPTQTLTLTCTVSGFSFSTSGMVVNWIRQPPGKALEWLAMIDWDADNIVYNSALKSRLTISKDTSKNQVVLTMTNMDPVDTATYYCAKDTGSGWFDAFDIWGQGTMVTVSS
VL: DIVMTQSPDSLAVSLGERATINCKSSQSVLYSSTNQNFLAWYQQKPGQPPKLLIYQASTLQNGVPDRFSGSGSGTDFTLTISSLQAEDVAVYYCQQYLTTPYTFGGGTKVEIKR
EC50 (read off the curve) [9]: ~0.2 nM
EC50 (read off the curve) [10]: ~0.2 nM
IC50 (nM) Latent + mTLL2 [1]: 0.386 nM
IC50 (nM) Pro + Furin [2]: 0.143 nM
EC50 (read off the curve) [11]: ~0.2 nM
Kd [6]: 0.106 nM
koff [6]: 0.000365 s⁻¹
kon [6]: 3.45e+06 M⁻¹ s⁻¹
Kd [7]: 0.187 nM
koff [7]: 0.000608 s⁻¹
kon [7]: 3.24e+06 M⁻¹ s⁻¹
Kd [8]: 0.101 nM
koff [8]: 0.000318 s⁻¹
kon [8]: 3.16e+06 M⁻¹ s⁻¹

From patent US20260209325A1 (SCHOLAR ROCK, published 2026)
